Assay results published in the supplement of paper PMC10065799, “High-throughput profiling of sequence recognition by tyrosine kinases and SH2 domains using bacterial peptide display” (eLife, 2023).

Experiments:
[1] = system: AncSZ; experiment: phosphorylation enrichment, bacterial display (enrichment ratio); higher = better substrate or ligand; peptides without Tyr show the background
[2] = target: EPHB1 (UniProt P54762); experiment: as above
[3] = target: EPHB2 (UniProt P29323); experiment: as above
[4] = target: FGFR1 (UniProt P11362); experiment: as above
[5] = target: FGFR3 (UniProt P22607); experiment: as above
[6] = system: Fer (mouse); experiment: as above
[7] = target: Fes (UniProt P07332); experiment: as above
[8] = target: Fyn (UniProt P06241); experiment: as above
[9] = target: Hck (UniProt P08631); experiment: as above
[10] = target: Jak2 (UniProt O60674); experiment: as above
[11] = target: MERTK (UniProt Q12866); experiment: as above
[12] = system: c-Abl (mouse); experiment: as above
[13] = system: c-Src; experiment: as above
[14] = target: Grb2 SH2 (UniProt P62993); experiment: SH2 binding enrichment of the phosphorylated peptide, bacterial display (enrichment ratio); higher = better substrate or ligand; peptides without Tyr show the background
[15] = target: SHP2-C SH2; experiment: as above
[16] = target: c-Src SH2; experiment: as above
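Wherever SH2 binding enrichment of the phosphorylated peptide, bacterial display is given: peptide library displayed on the E. coli surface as eCPX fusions, selected cells deep-sequenced, score is each peptide's frequency after selection divided by its frequency in the input.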
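Wherever phosphorylation enrichment, bacterial display is given: 11-residue human phosphosite peptides and single-mutation variants displayed on the E. coli surface, counted by deep sequencing, each peptide's frequency after selection divided by its frequency in the unselected input library; frequency after pTyr selection over input frequency; kinase dosed for 20-30% of maximal phosphorylation in three min.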

Sequence of MERTK (Q12866 whole entry, looked up): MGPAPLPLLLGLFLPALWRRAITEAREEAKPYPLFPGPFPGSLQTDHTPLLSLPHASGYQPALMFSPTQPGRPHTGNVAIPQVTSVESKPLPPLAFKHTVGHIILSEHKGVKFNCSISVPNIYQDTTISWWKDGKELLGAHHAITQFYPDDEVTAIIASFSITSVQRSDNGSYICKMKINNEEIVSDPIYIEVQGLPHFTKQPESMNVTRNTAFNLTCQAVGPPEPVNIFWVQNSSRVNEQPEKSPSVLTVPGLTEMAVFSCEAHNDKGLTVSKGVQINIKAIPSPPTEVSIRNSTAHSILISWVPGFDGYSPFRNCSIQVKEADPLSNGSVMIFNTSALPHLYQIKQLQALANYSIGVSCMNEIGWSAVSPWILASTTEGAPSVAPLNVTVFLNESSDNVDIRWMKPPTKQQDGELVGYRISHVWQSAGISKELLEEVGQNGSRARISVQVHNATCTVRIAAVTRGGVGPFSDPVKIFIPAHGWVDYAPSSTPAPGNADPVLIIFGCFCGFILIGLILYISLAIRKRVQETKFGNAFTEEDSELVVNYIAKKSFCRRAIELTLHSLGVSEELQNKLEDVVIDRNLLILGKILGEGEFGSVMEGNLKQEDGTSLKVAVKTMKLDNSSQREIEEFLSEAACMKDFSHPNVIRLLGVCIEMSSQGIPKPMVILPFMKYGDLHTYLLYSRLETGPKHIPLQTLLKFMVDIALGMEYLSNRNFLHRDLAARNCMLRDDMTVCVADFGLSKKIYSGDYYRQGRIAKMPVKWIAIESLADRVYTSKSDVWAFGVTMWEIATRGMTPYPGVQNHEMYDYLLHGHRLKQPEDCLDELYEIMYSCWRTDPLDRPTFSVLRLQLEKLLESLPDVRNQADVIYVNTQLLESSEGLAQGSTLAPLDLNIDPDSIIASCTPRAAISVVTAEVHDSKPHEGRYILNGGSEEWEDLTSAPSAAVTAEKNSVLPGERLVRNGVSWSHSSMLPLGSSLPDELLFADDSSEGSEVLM
Sequence of Grb2 SH2 (P62993 whole entry, looked up): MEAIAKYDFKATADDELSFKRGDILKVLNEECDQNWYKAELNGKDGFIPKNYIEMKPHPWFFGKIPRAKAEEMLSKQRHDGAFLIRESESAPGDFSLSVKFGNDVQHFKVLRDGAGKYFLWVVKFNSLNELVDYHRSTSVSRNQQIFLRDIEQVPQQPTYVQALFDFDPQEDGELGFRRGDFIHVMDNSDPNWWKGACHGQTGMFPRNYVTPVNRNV
Sequence of Jak2 (O60674 whole entry, looked up): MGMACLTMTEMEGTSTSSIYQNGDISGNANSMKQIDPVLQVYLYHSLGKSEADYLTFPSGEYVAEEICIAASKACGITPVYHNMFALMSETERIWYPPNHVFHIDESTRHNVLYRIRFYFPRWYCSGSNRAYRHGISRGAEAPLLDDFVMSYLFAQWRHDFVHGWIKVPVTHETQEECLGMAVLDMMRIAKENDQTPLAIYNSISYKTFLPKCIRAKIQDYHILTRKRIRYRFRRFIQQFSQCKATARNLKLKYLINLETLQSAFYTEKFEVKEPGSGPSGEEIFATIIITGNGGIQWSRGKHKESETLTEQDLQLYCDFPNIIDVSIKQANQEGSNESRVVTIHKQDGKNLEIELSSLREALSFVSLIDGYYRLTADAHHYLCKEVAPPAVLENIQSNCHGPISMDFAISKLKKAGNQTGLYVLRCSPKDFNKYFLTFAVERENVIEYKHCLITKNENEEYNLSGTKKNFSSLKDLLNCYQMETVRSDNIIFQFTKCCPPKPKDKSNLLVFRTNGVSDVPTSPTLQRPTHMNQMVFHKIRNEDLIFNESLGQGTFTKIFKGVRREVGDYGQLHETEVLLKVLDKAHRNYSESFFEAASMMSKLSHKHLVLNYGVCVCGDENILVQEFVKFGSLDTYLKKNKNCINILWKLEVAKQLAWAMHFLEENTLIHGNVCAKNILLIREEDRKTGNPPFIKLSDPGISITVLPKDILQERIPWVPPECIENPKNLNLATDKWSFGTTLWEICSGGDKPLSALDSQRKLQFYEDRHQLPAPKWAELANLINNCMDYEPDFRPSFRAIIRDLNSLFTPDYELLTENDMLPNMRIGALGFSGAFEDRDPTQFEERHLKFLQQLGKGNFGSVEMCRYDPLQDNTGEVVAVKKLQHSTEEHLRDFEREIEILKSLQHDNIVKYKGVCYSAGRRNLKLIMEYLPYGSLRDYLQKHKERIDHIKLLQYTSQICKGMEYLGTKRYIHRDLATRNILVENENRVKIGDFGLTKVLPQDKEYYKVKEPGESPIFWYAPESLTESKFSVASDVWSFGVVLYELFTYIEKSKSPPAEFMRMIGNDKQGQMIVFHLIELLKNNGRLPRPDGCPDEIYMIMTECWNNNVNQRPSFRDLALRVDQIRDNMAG
Sequence of Fyn (P06241 whole entry, looked up): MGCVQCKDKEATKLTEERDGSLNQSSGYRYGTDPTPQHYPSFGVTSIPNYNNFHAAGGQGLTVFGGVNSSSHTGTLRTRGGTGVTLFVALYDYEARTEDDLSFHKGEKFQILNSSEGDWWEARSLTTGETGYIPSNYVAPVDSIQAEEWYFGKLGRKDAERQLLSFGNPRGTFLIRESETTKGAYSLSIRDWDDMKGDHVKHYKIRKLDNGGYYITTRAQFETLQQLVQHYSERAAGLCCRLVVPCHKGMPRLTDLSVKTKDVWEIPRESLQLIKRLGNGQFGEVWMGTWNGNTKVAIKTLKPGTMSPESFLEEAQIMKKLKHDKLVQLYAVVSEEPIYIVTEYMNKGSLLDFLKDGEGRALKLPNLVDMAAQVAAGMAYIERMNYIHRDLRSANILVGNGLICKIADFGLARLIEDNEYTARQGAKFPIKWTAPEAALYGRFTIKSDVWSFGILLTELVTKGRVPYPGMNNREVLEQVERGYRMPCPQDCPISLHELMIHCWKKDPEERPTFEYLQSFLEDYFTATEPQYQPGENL
Sequence of FGFR1 (P11362 whole entry, looked up): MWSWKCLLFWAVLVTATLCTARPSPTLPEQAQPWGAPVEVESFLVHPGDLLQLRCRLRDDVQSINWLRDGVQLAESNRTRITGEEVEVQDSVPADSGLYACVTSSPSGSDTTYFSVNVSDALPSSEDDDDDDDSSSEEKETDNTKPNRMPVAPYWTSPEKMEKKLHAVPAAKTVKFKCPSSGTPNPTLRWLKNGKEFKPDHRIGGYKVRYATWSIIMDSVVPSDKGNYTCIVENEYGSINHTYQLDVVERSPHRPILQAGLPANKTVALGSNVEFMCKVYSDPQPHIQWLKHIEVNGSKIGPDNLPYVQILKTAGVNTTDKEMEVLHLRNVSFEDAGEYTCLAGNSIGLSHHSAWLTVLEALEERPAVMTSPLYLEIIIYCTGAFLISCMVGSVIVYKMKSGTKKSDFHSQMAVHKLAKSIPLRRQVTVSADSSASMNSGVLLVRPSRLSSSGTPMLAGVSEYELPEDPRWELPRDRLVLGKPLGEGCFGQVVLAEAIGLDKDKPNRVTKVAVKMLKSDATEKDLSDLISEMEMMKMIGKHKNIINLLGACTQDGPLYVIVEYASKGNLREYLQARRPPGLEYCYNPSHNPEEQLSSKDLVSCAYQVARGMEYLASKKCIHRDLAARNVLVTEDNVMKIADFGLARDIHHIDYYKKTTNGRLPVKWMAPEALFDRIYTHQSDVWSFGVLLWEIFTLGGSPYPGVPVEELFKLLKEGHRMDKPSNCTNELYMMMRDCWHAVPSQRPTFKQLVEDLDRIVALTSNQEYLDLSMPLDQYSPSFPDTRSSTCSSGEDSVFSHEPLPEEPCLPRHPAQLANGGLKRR
Sequence of EPHB2 (P29323 whole entry, looked up): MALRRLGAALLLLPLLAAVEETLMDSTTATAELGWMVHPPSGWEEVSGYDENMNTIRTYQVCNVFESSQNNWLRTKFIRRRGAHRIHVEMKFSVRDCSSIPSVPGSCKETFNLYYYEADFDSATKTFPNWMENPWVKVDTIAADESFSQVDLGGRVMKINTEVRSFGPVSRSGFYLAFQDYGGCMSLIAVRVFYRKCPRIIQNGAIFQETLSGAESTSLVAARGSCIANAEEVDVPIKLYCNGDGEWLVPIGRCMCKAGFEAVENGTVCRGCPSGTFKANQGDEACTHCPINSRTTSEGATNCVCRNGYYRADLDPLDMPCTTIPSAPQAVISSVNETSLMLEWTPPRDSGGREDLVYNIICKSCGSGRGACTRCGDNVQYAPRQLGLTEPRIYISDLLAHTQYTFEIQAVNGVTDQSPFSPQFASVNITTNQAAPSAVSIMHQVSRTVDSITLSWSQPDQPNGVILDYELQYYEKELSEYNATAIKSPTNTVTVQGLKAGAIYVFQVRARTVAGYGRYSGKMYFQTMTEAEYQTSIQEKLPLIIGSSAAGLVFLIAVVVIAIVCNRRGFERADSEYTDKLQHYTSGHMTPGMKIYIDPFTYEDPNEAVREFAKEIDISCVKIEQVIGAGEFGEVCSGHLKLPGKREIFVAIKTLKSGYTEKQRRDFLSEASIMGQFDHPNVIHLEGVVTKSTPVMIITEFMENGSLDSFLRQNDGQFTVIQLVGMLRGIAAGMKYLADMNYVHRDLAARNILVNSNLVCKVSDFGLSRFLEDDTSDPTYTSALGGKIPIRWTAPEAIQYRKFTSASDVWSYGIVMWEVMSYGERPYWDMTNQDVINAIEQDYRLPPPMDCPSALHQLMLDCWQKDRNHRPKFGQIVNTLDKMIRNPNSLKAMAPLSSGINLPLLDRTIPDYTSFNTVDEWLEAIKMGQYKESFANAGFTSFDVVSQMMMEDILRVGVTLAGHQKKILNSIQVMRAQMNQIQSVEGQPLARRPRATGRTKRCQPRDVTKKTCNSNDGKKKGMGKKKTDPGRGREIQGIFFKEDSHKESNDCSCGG

Row | Sequence | phosphorylation enrichment [1] | phosphorylation enrichment [2] | phosphorylation enrichment [3] | phosphorylation enrichment [4] | phosphorylation enrichment [5] | phosphorylation enrichment [6] | phosphorylation enrichment [7] | phosphorylation enrichment [8] | phosphorylation enrichment [9] | phosphorylation enrichment [10] | phosphorylation enrichment [11] | phosphorylation enrichment [12] | phosphorylation enrichment [13] | SH2 binding enrichment [14] | SH2 binding enrichment [15] | SH2 binding enrichment [16]
1 | TKDTFHKQPMF [GBA_Y451_Y451H] | 0.454 | 0.29 | 0.352 | 0.304 | 0.391 | 0.249 | 0.476 | 0.333 | 0.312 | 0.468 | 0.403 | 0.445 | 0.459 | 0.884 | 0.884 | 0.547
2 | MARDISRASYY [ALK_Y1278_Y1278S] | 0.525 | 0.422 | 0.395 | 0.464 | 0.452 | 0.33 | 0.73 | 0.475 | 0.395 | 0.65 | 0.453 | 0.59 | 0.463 | 0.776 | 0.519 | 0.433
3 | EDKSIYRRGAR [PRKCI_Y125] | 0.674 | 0.315 | 0.425 | 0.435 | 0.696 | 0.356 | 0.669 | 0.351 | 0.429 | 0.614 | 0.621 | 0.644 | 0.593 | 0.713 | 0.594 | 0.409
4 | TIWDSYTTNKV [GNB1_Y85_I80T] | 0.964 | 0.537 | 0.452 | 0.509 | 0.633 | 0.485 | 1.11 | 0.444 | 0.473 | 1.19 | 0.463 | 0.699 | 0.496 | 0.855 | 0.893 | 0.388
5 | RQQQDYWLMDV [ANPEP_Y600_I603M] | 1.8 | 7.32 | 3.72 | 18 | 13.1 | 1.03 | 1.01 | 0.537 | 0.487 | 1.26 | 3.29 | 0.587 | 0.509 | 0.896 | 0.815 | 0.634
6 | KLGDVYVNDAF [PGK1_Y161] | 0.734 | 0.467 | 0.571 | 0.557 | 0.63 | 0.547 | 0.86 | 0.552 | 0.488 | 0.801 | 0.395 | 0.574 | 0.423 | 2.38 | 0.729 | 1.39
7 | DSILVYQRKEQ [USH2A_Y1909_G1911R] | 0.636 | 0.455 | 0.546 | 0.517 | 0.579 | 0.487 | 0.744 | 0.506 | 0.55 | 0.7 | 0.475 | 0.55 | 0.626 | 0.939 | 1.18 | 0.552
8 | EERKTYVNTTL [TEK_Y1102] | 0.83 | 0.526 | 0.519 | 0.464 | 0.586 | 0.551 | 0.977 | 0.45 | 0.48 | 0.983 | 0.498 | 0.779 | 0.446 | 8.42 | 0.571 | 0.516
9 | KTGDFYDLFGG [PTPN11_Y63_N58K_YF] | 0.956 | 0.577 | 0.463 | 0.523 | 0.6 | 0.716 | 0.879 | 3.14 | 2.04 | 0.781 | 2.74 | 0.627 | 2.65 | 0.93 | 0.781 | 0.628
10 | TFGVLYKARNK [CDK2_Y19_V18L_YF] | 0.838 | 0.592 | 0.599 | 0.436 | 0.586 | 0.536 | 0.906 | 0.421 | 0.561 | 0.796 | 0.343 | 0.487 | 0.424 | 0.828 | 0.423 | 0.49
11 | GTATAYLCGVK [ALPL_Y117] | 0.756 | 0.512 | 0.507 | 0.485 | 0.595 | 0.463 | 1.07 | 0.472 | 0.501 | 0.89 | 0.352 | 0.667 | 0.427 | 0.763 | 0.695 | 0.432
12 | FASALYRQRRS [FGF11_Y162_YF] | 0.689 | 0.513 | 0.622 | 0.668 | 0.531 | 0.991 | 0.592 | 0.577 | 0.546 | 0.468 | 0.565 | 0.563 | 0.577 | 0.79 | 0.576 | 0.516
13 | EQSGSYIWVPA [DLG1_Y895] | 1.86 | 0.892 | 0.615 | 8.59 | 5.15 | 0.514 | 1.16 | 0.471 | 0.487 | 1.19 | 3.33 | 0.807 | 0.511 | 0.925 | 0.604 | 0.682
14 | RHFSSYSQMEN [PKP1_Y120_R116H] | 1.02 | 0.632 | 0.768 | 0.776 | 0.688 | 0.603 | 1 | 0.551 | 0.551 | 0.545 | 0.562 | 0.413 | 0.414 | 0.991 | 0.991 | 2.71
15 | TEYIQYVRRKN [MAX_Y73_M74V] | 0.712 | 0.465 | 0.425 | 0.528 | 0.488 | 0.454 | 0.573 | 0.615 | 0.589 | 0.548 | 0.647 | 0.875 | 0.657 | 0.834 | 0.64 | 0.463
16 | PPTFRYERGSR [INPPL1_Y663_YF] | 0.974 | 0.503 | 0.579 | 0.803 | 0.69 | 0.546 | 0.822 | 0.671 | 0.622 | 0.692 | 0.753 | 0.704 | 0.521 | 0.503 | 0.318 | 0.336
17 | QITQVYGFFHE [PPP2CA_Y127_D131H_YF] | 1.67 | 0.788 | 1.11 | 0.647 | 1.26 | 0.72 | 1.39 | 17.8 | 14.3 | 0.915 | 5.31 | 1.14 | 9.89 | 1.03 | 0.646 | 0.745
18 | ARRHPYFYAPE [ALB_Y172] | 0.883 | 0.488 | 0.553 | 1.87 | 1.08 | 0.58 | 0.766 | 0.641 | 0.575 | 0.8 | 0.893 | 0.605 | 0.972 | 0.61 | 0.47 | 0.3
19 | CSTIHYNFMCN [TP53_Y234_T230S_YF] | 1.2 | 0.369 | 0.54 | 0.458 | 0.418 | 0.423 | 0.693 | 0.476 | 0.375 | 0.573 | 0.385 | 0.461 | 0.468 | 1.4 | 1.91 | 2.44
20 | LIQRNYKLTAQ [ALPK2_Y1975_A1978T] | 0.86 | 0.479 | 0.604 | 0.465 | 0.511 | 0.393 | 1.12 | 0.462 | 0.507 | 1.24 | 0.567 | 1.2 | 0.706 | 1.24 | 0.952 | 0.532
21 | ICANKYMVESC [RPL10_Y75_K78E] | 0.982 | 0.482 | 0.502 | 0.596 | 0.659 | 0.455 | 1.14 | 0.47 | 0.574 | 0.982 | 0.432 | 0.657 | 0.53 | 0.913 | 0.861 | 0.675
22 | FEGRSYSACTT [MMP9_Y241] | 0.926 | 0.643 | 0.616 | 0.728 | 0.709 | 0.516 | 1.13 | 0.541 | 0.557 | 0.947 | 0.492 | 0.856 | 0.428 | 0.818 | 0.598 | 0.573
23 | NTGDFYDLFGG [PTPN11_Y63_YF] | 1.23 | 0.587 | 0.632 | 0.582 | 0.709 | 1.82 | 1.06 | 4.89 | 3.44 | 0.985 | 2.97 | 0.773 | 4.45 | 1.14 | 0.628 | 0.615
24 | NHQFDYTFHWT [CSNK1A1_Y294_D297H_YF] | 1.49 | 1.55 | 1.3 | 3.83 | 2.26 | 5.97 | 1.08 | 0.507 | 0.47 | 1.09 | 0.573 | 0.803 | 0.996 | 1.09 | 1.05 | 0.523
25 | EWQQTYTYDSG [JUP_Y20] | 1.12 | 0.554 | 0.585 | 1.17 | 0.99 | 0.513 | 1.02 | 1.28 | 0.783 | 0.898 | 0.817 | 0.657 | 3.88 | 0.813 | 0.775 | 1.01
26 | YIILIYAMKKK [SLCO1B1_Y645] | 0.588 | 0.486 | 0.348 | 0.331 | 0.692 | 0.399 | 0.511 | 0.514 | 0.53 | 0.451 | 0.416 | 0.426 | 0.363 | 2.34 | 2.86 | 2.04
27 | VFFDLYGGEKF [PTPN11_Y66_D61V_YF] | 1.03 | 0.803 | 0.596 | 0.443 | 0.598 | 0.509 | 1.11 | 1.42 | 2.08 | 0.835 | 0.517 | 0.914 | 2.04 | 1.04 | 0.77 | 0.572
28 | RKQQLYTAMEE [CCDC39_Y593] | 0.933 | 0.707 | 0.534 | 0.431 | 0.757 | 0.672 | 0.963 | 0.529 | 0.855 | 0.836 | 2.02 | 0.677 | 0.583 | 1.29 | 0.576 | 3.25
29 | RNESFYDTFST [EFCAB3_Y372] | 1.07 | 17.3 | 21 | 0.852 | 0.915 | 13.2 | 1.46 | 16.4 | 14.3 | 0.891 | 15.6 | 2.23 | 10.5 | 0.826 | 0.913 | 0.542
